Common to all, as to format: cell-based
Experiment [1] concerns human microvessel endothelial cells (HMVEC). Description: Adhesion assay on coated stainless steel disks, HMVEC. The following applies: FIG. 6. The source says:
Given that an important aspect of the present invention is the prevention of restenosis and thrombosis, we conducted experiments to address whether endothelial cells would adhere to metal devices that had been coated with tropoelastin. Briefly, tropoelastin was covalently conjugated to a stainless steel disk approximately 6 mm in diameter. Tropoelastin was linked to the disk surface using an intermediate polysaccharide molecule. An exemplary process for covalently linking tropoelastin to the disk surface, and the process used here, is used in the manufacture of Genous Bio-Engineered R Stents. These disks provided ample surface area for microscopic imaging. Disks were also similarly coated with anti-CD34 antibody and with polysaccharide vehicle alone. Stents coated with anti-CD34 antibody using a similar process (Genous Bio-Engineered R Stents) are currently in human clinical trials and have promise to promote capture of circulating endothelial cells and endothelial progenitor cells and to accelerate endothelialization.
Human microvessel endothelial cells (HMVEC) were cultured with these coated disks, and adhesion of the cells to the coated disks was assayed. […]

In experiment [2] the test system is human embryonic kidney cells (HEK 293). The experiment can be described thus: Cell adhesion assay on coated culture plates, HEK 293 cells. The following applies: culture plates coated with 10 ug/ml protein; 0.1% BSA control. As to the method:
Cells were plated on culture plates coated with either 0.1% BSA (as a control), 10 ug/ml fibronectin (FN), or 10 ug/ml recombinant tropoelastin, and assayed for adherence to the coated substrate.
96-well plates were coated in duplicate overnight at 4° C. with 10 μg/ml collagen, fibronectin, tropoelastin, or 0.1% bovine serum albumin (BSA). Cells were harvested with 0.25% trypsin/1 mM EDTA, washed three times in adhesion buffer (0.5% BSA in basal medium), suspended at a working density of 5×10^5/ml in adhesion buffer, and then allowed to recover for 1 h at 37° C. (5% CO2). For integrin-blocking assays, 25 μg/ml anti-integrin antibodies (Chemicon, Temecula, Calif.) or control IgG (Jackson ImmunoResearch Laboratories, Inc, West Grove, Pa.) were added to the cell suspension during the recovery period. During the cell recovery, the coated 96-well plates were washed twice in dPBS and blocked for 1 h at 25° C. in 5.0% BSA (dPBS). The blocking solution was removed, and the wells were washed twice in dPBS. Recovered cells were added to the coated wells in a volume of 100 μl per well and placed at 37° C. for 30 minutes (5% CO2). […] Readings represent the number of adherent cells/well (average six high powered 100× fields, three taken from each of two separate wells).

Experiment [3] concerns A2058 human melanoma cells. The experiment can be described thus: Cell adhesion assay, A2058 cells. The procedure: A2058 cells were assayed for adherence to substrates coated with BSA (control), fibronectin, tropoelastin, or a bioactive fragment of tropoelastin corresponding to a single repeat of the hexameric sequence VGVAPG (SEQ ID No. 5). In comparison to adherence to BSA, A2058 cells adhered to substrates coated with fibronectin tropoelastin, or a bioactive fragment of tropoelastin.
Cells were harvested with 0.25% trypsin/1 mM EDTA, washed three times in adhesion buffer (0.5% BSA in basal medium), suspended at a working density of 5×10^5/ml in adhesion buffer, and then allowed to recover for 1 h at 37° C. (5% CO2). For integrin-blocking assays, 25 μg/ml anti-integrin antibodies (Chemicon, Temecula, Calif.) or control IgG (Jackson ImmunoResearch Laboratories, Inc, West Grove, Pa.) were added to the cell suspension during the recovery period. During the cell recovery, the coated 96-well plates were washed twice in dPBS and blocked for 1 h at 25° C. in 5.0% BSA (dPBS). The blocking solution was removed, and the wells were washed twice in dPBS. Recovered cells were added to the coated wells in a volume of 100 μl per well and placed at 37° C. for 30 minutes (5% CO2). Following this incubation, the assay plate was inverted and assay wells were washed twice with 100 μl dPBS to remove non-specifically adhered cells. The wells were then fixed in Zamboni fixative, stained with Gill 1 hematoxylin, and overlayed with 80% glycerol. The assay was imaged at 100× magnification, capturing 3 random fields/well on a Zeiss Axiovert 200 inverted microscope equipped with a Zeiss Axiocam digital camera. Readings represent the number of adherent cells/well (average six high powered 100× fields, three taken from each of two separate wells).

B1: tropoelastin: recombinant human tropoelastin lacking native signal sequence, 10× His tag and Factor Xa site on N-terminus, 706 amino acid residues (SEQ ID NO: 4) (protein, listed as Homo sapiens)
chain: MGHHHHHHHHHHSSGGIEGRGGVPGAIPGGVPGGVFYPGAGLGALGGGALGPGGKPLKPVPGGLAGAGLGAGLGAFPAVTFPGALVPGGVADAAAAYKAAKAGAGLGGVPGVGGLGVSAGAVVPQPGAGVKPGKVPGVGLPGVYPGGVLPGARFPGVGVLPGVPTGAGVKPKAPGVGGAFAGIPGVGPFGGPQPGVPLGYPIKAPKLPGGYGLPYTTGKLPYGYGPGGVAGAAGKAGYPTGTGVGPQAAAAAAAKAAAKFGAGAAGVLPGVGGAGVPGVPGAIPGIGGIAGVGTPAAAAAAAAAAKAAKYGAAAGLVPGGPGFGPGVVGVPGAGVPGVGVPGAGIPVVPGAGIPGAAVPGVVSPEAAAKAAAKAAKYGARPGVGVGGIPTYGVGAGGFPGFGVGVGGIPGVAGVPGVGGVPGVGGVPGVGISPEAQAAAAAKAAKYGVGTPAAAAAKAAAKAAQFALLNLAGLVPGVGVAPGVGVAPGVGVAPGVGLAPGVGVAPGVGVAPGVGVAPGIGPGGVAAAAKSAAKVAAKAQLRAAAGLGAGIPGLGVGVGVPGLGVGAGVPGLGVGAGVPGFGAVPGALAAAKAAKYGAAVPGVLGGLGALGGVGIPGGVVGAGPAAAAAAAKAAAKAAQFGLVGAAGLGGLGVGGLGVPGVGGLGGIPPAAAAKAAKYGVAARPGFGLSPIFPGGACLGKACGRKRK
Consider B1, for which the “HMVEC adhesion to coated disks relative to anti-CD34 antibody coated disks” value in experiment [1] is given as “comparable to the adhesion of HMVECs to stainless steel disks coated with an anti-CD34 antibody”. Further, in experiment [1] (protein covalently conjugated to 6 mm disk), the “adhesion of HMVEC to coated stainless steel disks” value was “promoted adhesion of human endothelial cells to a metal device”. The “adhesion of HEK 293 cells to the coated substrate” value in experiment [2] is listed as “do not adhere to tropoelastin”. Besides, the “level of A2058 adhesion relative to fibronectin” value in experiment [3] (50 μg/ml of tropoelastin) is listed as “similarly to 10 ug/ml of fibronectin”. Further, the “dose dependence of A2058 adhesion” value in experiment [3] (FIG. 4) is reported as “dose dependent”. For the same molecule, in experiment [3] (FIG. 4, coated substrates, peptide 10 μM), the “adhesion of A2058 cells in comparison to BSA” value is “adhered”.
